Data on two substances can be found in paper PMC3589550.

This experiment concerns the target HAUSP^62–205 (HAUSP TRAF domain) (UniProt Q93009). Nature of the experiment: ITC. A general note: Isothermal titration calorimetry measures the heat released or taken up as one component is titrated into another.

HAUSP^62–205 (HAUSP TRAF domain), sequence (Q93009 62-205): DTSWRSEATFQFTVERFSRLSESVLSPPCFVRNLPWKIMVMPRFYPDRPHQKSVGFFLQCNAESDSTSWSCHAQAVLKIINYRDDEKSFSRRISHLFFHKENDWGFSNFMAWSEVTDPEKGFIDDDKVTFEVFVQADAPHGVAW

The substance “p53^350–364 peptide (from UniProt P04637 350-364)” registered a Ka of 65000 M⁻¹. As for “p53^355–369 peptide (from UniProt P04637 355-369)”, the figure is 67000 M⁻¹.
